Among the data in article PMC3907796 are initial velocity (V0) of DAO activity (400 nM DAO-6H, 40 mM D-alanine, 25 °C) with 0, 1, 3, 10 μM G72; V0 values, retold here.

In this assay the target is DAO-6H (recombinant D-amino acid oxidase with C-terminal (His)6) (UniProt P14920).
DAO-6H (recombinant D-amino acid oxidase with C-terminal (His)6), sequence (P14920 whole entry): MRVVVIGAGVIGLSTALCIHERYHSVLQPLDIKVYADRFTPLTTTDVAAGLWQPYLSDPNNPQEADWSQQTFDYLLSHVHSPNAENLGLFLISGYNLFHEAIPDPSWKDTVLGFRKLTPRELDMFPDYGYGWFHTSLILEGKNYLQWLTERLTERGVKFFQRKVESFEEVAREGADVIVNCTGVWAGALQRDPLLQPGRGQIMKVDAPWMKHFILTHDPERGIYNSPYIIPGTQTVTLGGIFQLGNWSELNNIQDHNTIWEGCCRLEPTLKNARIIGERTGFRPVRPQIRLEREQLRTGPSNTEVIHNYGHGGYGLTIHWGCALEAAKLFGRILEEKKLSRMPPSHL

B1: G72-6H (recombinant full-length G72 with C-terminal (His)6, refolded) (natural protein)
chain: MLEKLMGADSLQLFRSRYTLGKIYFIGFQRSILLSKSENSLNSIAKETEEGRETVTRKEGWKRRHEDGYLEMAQRHLQRSLCPWVSYLPQPYAELEEVSSHVGKVFMARNYEFLAYEASKDRRQPLERMWTCNYNQQKDQSCNHKEITSTKAE
For B1, the initial velocity (V0) of DAO activity (400 nM DAO-6H, 40 mM D-alanine, 25 °C) with 0, 1, 3, 10 μM G72; V0 at 10 μM, fold of DAO alone in parentheses (mol hydrogen peroxide produced/min/g DAO) is 8.06.
